Experimental findings from patent US20240124586A1 (WUXI BIOLOGICS IRELAND, published 2024) are described below.

The target in assay [1] is T1, human PD-1 on engineered CHO-S cells (W305-CHO-S.hPro1.C6) (human, UniProt Q15116 25-288).
T1 construct: whole, on cells; also called human PD-1 engineered cells; PD-1+ cells
The assay can be described thus: FACS binding to human PD-1 engineered cells. Here is the method:
Engineered human PD-1 expressing cells W305-CHO-S.hPro1.C6 were seeded at 1×10⁵ cells/well in U-bottom 96-well plates (COSTAR 3799). Antibodies with 3.16-fold titration in 1% BSA DPBS from 200 nM to 0.002 nM were added to the cells. The plates were incubated at 4° C. for 1 hour. After wash, […] 1:125 diluted PE-labeled goat anti-human antibody (Jackson 109-115-098) was added to each well and the plates were incubated at 4° C. for 1 hour. The binding of the antibodies onto the cells was tested by flow cytometry and the mean fluorescence intensity (MFI) was analyzed by FlowJo.
In general terms: A flow cytometer gives signals particle by particle.

Assay [2] deals with T2, cynomolgus PD-1 on engineered 293F cells (W305-293F.cynoPro1.FL.pool) (cynomolgus).
T2 construct: whole, on cells; also called cynomolgus PD-1 engineered cells
Briefly: FACS binding to cynomolgus PD-1 engineered cells. Here is the method:
4.0-fold titrated Abs with 1% BSA DPBS from 40 μg/ml to 0.0001526 μg/ml were added to the cells. Plates were incubated at 4° C. for 1 hour. After wash, […] 1:150 diluted PE-labeled goat anti-human antibody (Jackson 109-115-098) was added to each well and the plates were incubated at 4° C. for 1 hour. The binding of the antibodies onto the cells was tested by flow cytometry and the mean fluorescence intensity (MFI) was analyzed by FlowJo.

For assay [3], the target named is T3, ECD of human PD-1 (SPR analyte) (human, UniProt Q15116 25-170).
T3 construct: extracellular domain; the SPR method only says ECD of PD-1; also called W305-hPro1.ECD.His
Briefly: SPR (Biacore), antibody captured as ligand on an anti-human IgG Fc chip, PD-1 ECD as analyte. Here is the method:
SPR technology was used to measure the on-rate constant (ka) and off-rate constant (kd) of the antibodies to ECD of CTLA-4 or PD-1. The affinity constant (KD) was consequently determined.
Biacore T200, Series S Sensor Chip CM5, Amine Coupling Kit, and 10×HBS-EP were purchased from GE Healthcare. Goat anti-human IgG Fc antibody was purchased from Jackson ImmunoResearch Lab (catalog number 109-005-098). In immobilization step, the activation buffer was prepared by mixing 400 mM EDC and 100 mM NHS immediately prior to injection. The CM5 sensor chip was activated for 420 s with the activation buffer. 30 μg/mL of goat anti-human IgG Fcγ antibody in 10 mM NaAc (pH 4.5) was then injected to Fc1-Fc4 channels for 200 s at a flow rate of 5 μL/min. The chip was deactivated by 1 M ethanolamine-HCl (GE). Then the antibodies were captured on the chip. Briefly, 4 μg/mL antibodies in running buffer (HBS-EP+) was injected individually to Fc3 channel for 30 s at a flow rate of […]. […] Regeneration buffer (10 mM Glycine pH 1.5) was injected at 10 μL min for 30 s following every dissociation phase.
Background: SPR reads the build-up and loss of mass on a sensor chip optically.

Assay [4] addresses T1, human PD-1 on engineered CHO-S cells …. Briefly: FACS competition: blocks human PD-L1 protein (W315-hPro1.ECD.mFc) binding to human PD-1 engineered cells. Here is the method:
In order to test whether the bispecific antibodies could block hPD-L1 binding to hPD-1 protein, a competitive FACS was conducted. […] Plates were incubated at 4° C. for 1 hour. After wash, the binding of W315-hPro1.ECD.mFc to cell expressive human PD-1 was detected by FITC-labeled goat anti-mouse antibody (abcam 98716 1:125). The competition binding of antibodies to the cells was tested by flow cytometry and the mean fluorescence intensity (MFI) was analyzed by FlowJo.

Assay [5] addresses T4, hCTLA4.ECD.hFc (human).
T4 construct: ECD fused to a human Fc; not biotinylated; also called Human CTLA-4: W316-hPro1.ECD.hFc (in house)
Briefly: dual-binding ELISA (hCTLA4.ECD.hFc coated, detected with hPD-1-ECD.Biotin), sample kept 0 d in human serum at 37 C. Here is the method:
(§1) The antibodies were incubated in freshly isolated human serum at 37° C. On indicated time points, an aliquot of serum treated sample was removed from the incubator and snap frozen in liquid nitrogen, and then stored at −80° C. until ready for a dual-binding ELISA test. The frozen samples were quickly thawed immediately prior to the stability test. Briefly, plates were pre-coated with 0.5 μg/mL of hCTLA4.ECD.hFc (in house) at 4° C. overnight. After 1-hour blocking, the testing antibodies were added to the plates at various concentrations. The plates were incubated at ambient temperature for 1 hour. Following the incubation, the plates were washed three times with 300 μL per well of PBS containing 0.5% (v/v) Tween 20. Then 0.1 μg/ml hPD-1-ECD.Biotin was added to plates and the mixture was incubated for 1 hour. After washing the plates three times, Streptavidin-HRP (Lifetechnologies, #SNN1004) (1:20000 diluted) was added and incubated on the plates for 1 hour at room temperature. After washing six times with 300 μL per well of PBS containing 0.5% (v/v) Tween 20, 100 μL tetramethylbenzidine (TMB) substrate is added for the detection per well. The reaction was stopped after approximately 5 minutes by addition of 100 μL per well of 2 M HCl. The absorbance of the wells was measured at 450 nm with a multiwall plate reader (SpectraMax® M5e). […]
Background: In an ELISA, binding on a coated surface is turned into a signal by an enzyme label.

The target in assay [6] is T4, hCTLA4.ECD.hFc. Briefly: dual-binding ELISA (hCTLA4.ECD.hFc coated, detected with hPD-1-ECD.Biotin), sample kept 1 d in human serum at 37 C. Here is the method:
as §1

For assay [7], the target named is T4, hCTLA4.ECD.hFc. The assay can be described thus: dual-binding ELISA (hCTLA4.ECD.hFc coated, detected with hPD-1-ECD.Biotin), sample kept 4 d in human serum at 37 C. Here is the method:
as §1

Assay [8] deals with T4, hCTLA4.ECD.hFc. The assay can be described thus: dual-binding ELISA (hCTLA4.ECD.hFc coated, detected with hPD-1-ECD.Biotin), sample kept 7 d in human serum at 37 C. Here is the method:
as §1

The target in assay [9] is T4, hCTLA4.ECD.hFc. The assay can be described thus: dual-binding ELISA (hCTLA4.ECD.hFc coated, detected with hPD-1-ECD.Biotin), sample kept 14 d in human serum at 37 C. Here is the method:
as §1

For orientation: EC50 means the concentration that produces a half-maximal response. Lower therefore signals higher potency in that assay. In general, koff refers to the rate constant with which the complex falls apart. A low value points to a long-lived complex. Usually kon stands for a measure of how fast the partners come together. Read a high kon as faster complex formation.

T1 sequence (Q15116 25-288, change not shown): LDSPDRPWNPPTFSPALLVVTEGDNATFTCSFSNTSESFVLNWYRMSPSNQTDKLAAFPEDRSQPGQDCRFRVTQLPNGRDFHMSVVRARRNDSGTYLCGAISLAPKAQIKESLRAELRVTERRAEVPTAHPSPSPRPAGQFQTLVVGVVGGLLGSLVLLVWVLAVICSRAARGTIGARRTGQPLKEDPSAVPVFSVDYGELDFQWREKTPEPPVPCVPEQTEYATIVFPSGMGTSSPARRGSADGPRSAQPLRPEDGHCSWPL
T3 sequence (Q15116 25-170): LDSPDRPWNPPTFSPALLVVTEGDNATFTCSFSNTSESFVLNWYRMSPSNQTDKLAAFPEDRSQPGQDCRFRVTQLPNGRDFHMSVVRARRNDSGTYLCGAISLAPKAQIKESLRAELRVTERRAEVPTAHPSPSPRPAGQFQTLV
T4 sequence (P16410 36-161): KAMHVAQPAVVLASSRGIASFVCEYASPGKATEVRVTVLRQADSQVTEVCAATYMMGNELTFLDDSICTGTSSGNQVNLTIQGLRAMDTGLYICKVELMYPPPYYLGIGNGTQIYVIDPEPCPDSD

B1: W3248-U6T5.G25-1.uIgG4.SP, bispecific anti-PD-1 x CTLA-4 (bispecific antibody)
heavy: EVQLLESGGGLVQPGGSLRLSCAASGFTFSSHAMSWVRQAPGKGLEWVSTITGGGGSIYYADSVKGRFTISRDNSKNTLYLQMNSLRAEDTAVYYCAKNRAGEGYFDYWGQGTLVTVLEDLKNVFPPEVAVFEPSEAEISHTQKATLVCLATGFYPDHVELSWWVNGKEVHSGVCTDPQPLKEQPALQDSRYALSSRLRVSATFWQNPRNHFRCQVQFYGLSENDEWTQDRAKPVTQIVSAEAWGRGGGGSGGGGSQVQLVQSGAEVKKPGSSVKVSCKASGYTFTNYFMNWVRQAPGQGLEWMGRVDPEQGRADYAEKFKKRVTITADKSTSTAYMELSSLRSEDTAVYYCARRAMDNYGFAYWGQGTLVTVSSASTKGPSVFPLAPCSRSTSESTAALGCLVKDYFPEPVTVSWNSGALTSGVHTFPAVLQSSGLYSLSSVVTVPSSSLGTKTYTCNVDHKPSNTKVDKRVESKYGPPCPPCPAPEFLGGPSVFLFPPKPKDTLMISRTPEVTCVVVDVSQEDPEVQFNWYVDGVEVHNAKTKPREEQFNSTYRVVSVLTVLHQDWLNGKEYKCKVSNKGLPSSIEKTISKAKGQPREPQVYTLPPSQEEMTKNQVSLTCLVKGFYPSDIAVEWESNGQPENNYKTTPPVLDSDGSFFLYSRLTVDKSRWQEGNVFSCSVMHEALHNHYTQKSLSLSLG
light 1: SYELTQPLSVSVALGQTARITCGGDNIGNKDVHWYQQKPGQAPVLVIYRDSNRPSGIPEGFSGSNSGNTATLTISRAQAGDEADYYCQVWDSIWVFGGGTKLTVLPDIQNPDPAVYQLRDSKSSDKSVCLFTDFDSQTQVSQSKDSDVYITDKCVLDMRSMDFKSNSAVAWSQKSDFACANAFQNSIIPEDTFFPSPESS
light 2: EIVLTQSPDFQSVTPKEKVTITCSANSALSYMYWYQQKPDQSPKLWVHGTSNLASGVPSRFSGSGSGTDFTLTINSLEAEDAATYYCHHWSNTQWTFGGGTKVEIKRTVAAPSVFIFPPSDEQLKSGTASVVCLLNNFYPREAKVQWKVDNALQSGNSQESVTEQDSKDSTYSLSSTLTLSKADYEKHKVYACEVTHQGLSSPVTKSFNRGEC
notes: IgG4 (S228P); also called WBP3248-U6T5.G25-1-uIgG4.SP; U6T5.G25.IgG4
Regarding B1, the EC50 in assay [1] came to 1.18 nM; in assay [2], 5.13 nM; with hCTLA4.ECD.hFc [5], 0.092 nM; with hCTLA4.ECD.hFc [6] it was 0.0978 nM; in the assay with hCTLA4.ECD.hFc [7] it was 0.0944 nM; with hCTLA4.ECD.hFc [8] it was 0.101 nM. The same molecule gave an EC50 in the assay with hCTLA4.ECD.hFc [9] of 0.0989 nM. Also, the “Top(MFI)” value in [2] was 68100 MFI. This molecule displayed a koff in assay [3] of 0.000844 s⁻¹. This molecule also came in with a kon in assay [3] of 642000 M⁻¹ s⁻¹. In assay [4], this molecule came in with an Inhibition % of 94.4%.

B2: W3248-U6T1.G25R-1.uIgG4.SP, bispecific anti-PD-1 x CTLA-4 (bispecific antibody)
heavy: EVQLLESGGGLVQPGGSLRLSCAASGFTFSSHAMSWVRQAPGKGLEWVSTITGGGGSIYYADSVKGRFTISRDNSKNTLYLQMNSLRAEDTAVYYCAKNRAGEGYFDYWGQGTLVTVSSASTKGPSVFPLAPCSRSTSESTAALGCLVKDYFPEPVTVSWNSGALTSGVHTFPAVLQSSGLYSLSSVVTVPSSSLGTKTYTCNVDHKPSNTKVDKRVGGGGSGGGGSQVQLVESGGGVVQPGRSLRLSCAASGFTFSSYTMHWVRQAPGKGLEWVTFISYDGNNKYYADSVKGRFTISRDNSKNTLYLQMNSLRAEDTAIYYCARTGWLGPFDYWGQGTLVTVLEDLKNVFPPEVAVFEPSEAEISHTQKATLVCLATGFYPDHVELSWWVNGKEVHSGVCTDPQPLKEQPALQDSRYALSSRLRVSATFWQNPRNHFRCQVQFYGLSENDEWTQDRAKPVTQIVSAEAWGRYGPPCPPCPAPEFLGGPSVFLFPPKPKDTLMISRTPEVTCVVVDVSQEDPEVQFNWYVDGVEVHNAKTKPREEQFNSTYRVVSVLTVLHQDWLNGKEYKCKVSNKGLPSSIEKTISKAKGQPREPQVYTLPPSQEEMTKNQVSLTCLVKGFYPSDIAVEWESNGQPENNYKTTPPVLDSDGSFFLYSRLTVDKSRWQEGNVFSCSVMHEALHNHYTQKSLSLSLG
light 1: SYELTQPLSVSVALGQTARITCGGDNIGNKDVHWYQQKPGQAPVLVIYRDSNRPSGIPEGFSGSNSGNTATLTISRAQAGDEADYYCQVWDSIWVFGGGTKLTVLGQPKAAPSVTLFPPSSEELQANKATLVCLISDFYPGAVTVAWKADSSPVKAGVETTTPSKQSNNKYAASSYLSLTPEQWKSHKSYSCQVTHEGSTVEKTVAPTECS
light 2: not shown
notes: IgG4 (S228P); also called U6T1.G25R.IgG4
In the case of B2, the EC50 turned out to be 0.948 nM in assay [1]; 4.71 nM in assay [2]; 0.14 nM with hCTLA4.ECD.hFc [5]; 0.147 nM in the assay with hCTLA4.ECD.hFc [6]; 0.141 nM with hCTLA4.ECD.hFc [7]; 0.145 nM in the assay with hCTLA4.ECD.hFc [8]. In the assay with hCTLA4.ECD.hFc [9], the EC50 was 0.156 nM. Moreover, in assay [2], the “Top(MFI)” value is 66800 MFI. Further, the koff in assay [3] worked out at 0.000675 s⁻¹. The kon in [3] was 542000 M⁻¹ s⁻¹. Moreover, the Inhibition % in [4] was 98.6%.
